According to US20210060171A1 (DUKE UNIVERSITY, published 2021):
No end group written: not given here.

What was measured:
[1] = molecular target: T1, human serum albumin (human, UniProt P02768 25-609); assay: isothermal titration calorimetry, HSA injected into ABD-Dox in PBS at 37 C, independent binding site model
T1 construct: also called HSA; HAS

[2] = molecular target: T2, mouse serum albumin (mouse, UniProt P07724 25-608); assay: isothermal titration calorimetry, MSA injected into ABD-Dox in PBS at 37 C, independent binding site model
T2 construct: also called MSA
T2 sequence (P07724 25-608 limits assumed): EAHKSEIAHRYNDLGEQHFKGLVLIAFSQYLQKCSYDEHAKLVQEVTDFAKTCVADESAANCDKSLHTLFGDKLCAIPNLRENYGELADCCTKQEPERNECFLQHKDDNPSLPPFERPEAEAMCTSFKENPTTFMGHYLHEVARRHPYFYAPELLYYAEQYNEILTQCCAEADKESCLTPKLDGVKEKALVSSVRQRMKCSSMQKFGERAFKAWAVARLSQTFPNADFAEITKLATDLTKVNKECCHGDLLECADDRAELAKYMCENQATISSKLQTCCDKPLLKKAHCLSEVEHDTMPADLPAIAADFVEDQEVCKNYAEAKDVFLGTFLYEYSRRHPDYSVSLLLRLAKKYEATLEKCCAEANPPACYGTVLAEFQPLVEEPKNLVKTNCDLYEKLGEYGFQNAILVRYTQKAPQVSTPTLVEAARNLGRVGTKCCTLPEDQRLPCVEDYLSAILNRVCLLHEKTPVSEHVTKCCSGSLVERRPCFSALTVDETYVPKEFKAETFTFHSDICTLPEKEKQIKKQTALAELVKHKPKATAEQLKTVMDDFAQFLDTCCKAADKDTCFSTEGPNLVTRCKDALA

B1: ABD-Dox (ABD-(CGG)4-Dox with 1 and 2 conjugated Dox molecules) (peptide)
chain: GLAEAKVLANRELDKYGVSDYYKNLINNAKTVEGVKALIDEILAALPCGGCGGCGGCGG
modifications: also: 1-2 doxorubicin via EMCH (maleimide, hydrazone) on Cys of C-terminal (CGG)4
notes: Product of sortase A cleavage of KEKE-ELP160-srt-ABD-(CGG)4-Dox; also called AlBiPeD
With B1 the Kd [1] was 125 nM, the ΔH [1] was -28.1 kJ/mol and the ΔS [1] was 41.5 Jmol^-1K^-1. The Kd [2] was 73.8 nM, the ΔH [2] was -18.6 kJ/mol and the ΔS [2] was 76.6 Jmol^-1K^-1.
